Article PMC13376213 (Nature Communications, 2026)
Ends that are not written are not given here.

Target: USP11 tandem DUSP-UBL domain, tag cleaved (for FP) (human)
Assay: fluorescence polarisation; saturation or displacement not stated for this experiment; 50 mM phosphate buffer pH 7.4, room temperature
Settings: both partners purified

Chain of USP11 tandem DUSP-UBL domain, tag cleaved (for FP) (human) (chain, as listed by the source): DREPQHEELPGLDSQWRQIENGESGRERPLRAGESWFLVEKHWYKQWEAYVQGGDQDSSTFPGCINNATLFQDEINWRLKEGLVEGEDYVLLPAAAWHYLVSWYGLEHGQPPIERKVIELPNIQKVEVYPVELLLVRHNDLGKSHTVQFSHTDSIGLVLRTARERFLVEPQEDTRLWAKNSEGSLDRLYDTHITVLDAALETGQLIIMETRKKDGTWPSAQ

SAVTYPDWIGQSYSEV-NH2 (also: N-terminus FITC-labeled or acetylated, not given here which) [ORAI1 peptide used for FP]
Kd: 200 to 300 µM
